Test results as given in publication doi:10.1101/655282.
Where no end group is shown, it is not given here. [ ]: non-standard residue; d: D form. pS = N[C@@H](COP(=O)(O)O)C(=O)O

Biological target: SUMO1 (UniProt P63165)
UniProt P63165, sequence (P63165 1-97): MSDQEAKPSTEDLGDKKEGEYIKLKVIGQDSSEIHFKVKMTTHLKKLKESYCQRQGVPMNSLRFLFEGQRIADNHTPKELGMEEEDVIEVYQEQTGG

Binder | rate of increase in anisotropy, real-time SUMOylation assay with SUMO1 [min⁻¹]
PLIKQEDIKPEPDFTIQYRNKIIDTAGCIVISDSEEEQG (also: FITC label, site not given here) [IE2 N-Terminal Domain (IE2-NTD), FITC labelled] | 0.00012
PLIKQEDIKPEPDFTIQYRNKIIDTAGCIVI[pS]D[pS]EEEQG (also: FITC label, site not given here) [phosphorylated IE2-NTD (IE2-ppNTD)] | 0.00021
